Data set [1] has as its target T1, SARS-CoV-2 nucleocapsid (N) protein (SARS-CoV-2, UniProt P0DTC9 1-419). Nature of the data set: circular dichroism; 1 uM each, 30 min at 37 C; 280 nm peak increased; Tris-HCl pH 7.6, 37 C, 30 min; 400 nM aptamer, 240 U/mL Exo I, 1.5 mg/mL beta-CDP; salt not in the material held. (Circular dichroism is the unequal absorption of left and right circularly polarised light.)

Data set [2] deals with T1, SARS-CoV-2 nucleocapsid (N) protein. Nature of the data set: Exo I protection, agarose gel; 600 nM N protein, 400 nM aptamer, 240 U/mL Exo I; labeled form inferred from text on pyrene; Tris-HCl pH 7.6, 37 C, 30 min; 400 nM aptamer, 240 U/mL Exo I, 1.5 mg/mL beta-CDP; salt not in the material held. To be noted: label: 3'-pyrene.

B1: N protein-binding aptamer (ssDNA)
DNA: GCTGGATGTCGCTTACGACAATATTCCTTAGGGGCACCGCTACATTGACACATCCAGC
Take B1: in data set [1], the binding result is “binds”.

B2: Pyrene-labeled N protein binding aptamer (ssDNA)
DNA: GCTGGATGTCGCTTACGACAATATTCCTTAGGGGCACCGCTACATTGACACATCCAGC
modifications: 5'-SH (so in the source); 3'-pyrene
Regarding B2, the binding result in data set [2] is “binds”.

These data come from PMC10139410, “β-Cyclodextrin Polymer-Based Fluorescence Enhancement Strategy via Host–Guest Interaction for Sensitive Assay of SARS-CoV-2”.
